Values quoted from earlier work, collected in patent US6316409A, “Modified ligands of calcium-dependent binding proteins” (Medical Research Council, priority 1996, dated 2001).

Target: T1, barnase (Bacillus amyloliquefaciens, UniProt P00648)
T1 sequence (P00648 48-157): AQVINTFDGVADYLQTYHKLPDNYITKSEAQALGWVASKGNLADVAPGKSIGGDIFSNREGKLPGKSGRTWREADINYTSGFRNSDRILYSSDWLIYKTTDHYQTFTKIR
Conditions: cited from earlier work

B1: barstar: physiological inhibitor of barnase (protein, UniProt P11540 2-90, looked up)
Barstar: KKAVINGEQIRSISDLHQTLKKELALPEYYGENLDALWDCLTGWVEYPLVLEWRQFEQSKQLTENGAESVLQVFREAKAEGCDITIILS
association rate constant: 3.8e+09 M⁻¹ s⁻¹
